# Tested on: Escherichia coli TOP10
# Assay: shrunken log2 fold change of peptide-encoding DNA abundance (4.5 h post-induction vs induction); higher = less antimicrobial activity (less host growth inhibition)
# Conditions: time post-induction: 4.5 h; library: site-saturation at positions 5, 18, 19, 20
# 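Further: peptides expressed intracellularly from a pBAD plasmid library in pooled LB shake-flask culture, induced with 0.3% L-arabinose, DNA abundance read by NGS, three biological replicates, DESeq2 with apeglm shrinkage.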
row,Sequence,shrunken log2 fold change
1,RRIRDRPPRLPRPRPRPIMVPRP,-0.103
2,RRIRFRPPRLPRPRPRPQQYPRP,-0.552
3,RRIRVRPPRLPRPRPRPKDMPRP,-0.272
4,RRIRIRPPRLPRPRPRPFIIPRP,-1.76
5,RRIRERPPRLPRPRPRPSAKPRP,0.0244
6,RRIRWRPPRLPRPRPRPVVVPRP,0.281
7,RRIRCRPPRLPRPRPRPYKLPRP,-0.898
8,RRIRRRPPRLPRPRPRPTAEPRP,-0.0162
9,RRIRCRPPRLPRPRPRPQQRPRP,0.0521
10,RRIRSRPPRLPRPRPRPVESPRP,-0.0897
11,RRIRFRPPRLPRPRPRPGMYPRP,-0.076
12,RRIRMRPPRLPRPRPRPHIKPRP,-0.501
13,RRIRNRPPRLPRPRPRPYQQPRP,-0.388
14,RRIRPRPPRLPRPRPRPPNQPRP,0.282
15,RRIRYRPPRLPRPRPRPRPSPRP,0.0768
16,RRIRHRPPRLPRPRPRPFWSPRP,-0.0841
17,RRIRRRPPRLPRPRPRPYYEPRP,-0.572
18,RRIRQRPPRLPRPRPRPMQIPRP,0.0201
19,RRIRCRPPRLPRPRPRPIWAPRP,-0.0162
20,RRIRKRPPRLPRPRPRPCSGPRP,0.00663
21,RRIRWRPPRLPRPRPRPCWIPRP,-0.072
22,RRIRDRPPRLPRPRPRPRFDPRP,-0.0584
23,RRIRYRPPRLPRPRPRPRTWPRP,-0.0833
24,RRIRERPPRLPRPRPRPAWQPRP,-0.109
25,RRIRIRPPRLPRPRPRPLCHPRP,-0.626

row,Sequence,shrunken log2 fold change
1,RRIRWRPPRLPRPRPRPLDPPRP,0.0629
2,RRIRFRPPRLPRPRPRPNSHPRP,-0.432
3,RRIRHRPPRLPRPRPRPLEEPRP,0.136
4,RRIRTRPPRLPRPRPRPWYTPRP,-0.555
5,RRIRWRPPRLPRPRPRPGMFPRP,0.281
6,RRIRQRPPRLPRPRPRPPWIPRP,-0.145
7,RRIRWRPPRLPRPRPRPRCRPRP,0.371
8,RRIRCRPPRLPRPRPRPTPNPRP,0.786
9,RRIRHRPPRLPRPRPRPNYFPRP,-0.125
10,RRIRCRPPRLPRPRPRPTIFPRP,-0.626
11,RRIRWRPPRLPRPRPRPGIEPRP,0.281
12,RRIRERPPRLPRPRPRPETAPRP,0.0892
13,RRIRTRPPRLPRPRPRPLVPPRP,0.193
14,RRIRERPPRLPRPRPRPRQMPRP,-0.000582
15,RRIRTRPPRLPRPRPRPEKLPRP,-0.0188
16,RRIRGRPPRLPRPRPRPWPSPRP,0.258
17,RRIRMRPPRLPRPRPRPVVQPRP,-0.0427
18,RRIRLRPPRLPRPRPRPEERPRP,0.231
19,RRIRSRPPRLPRPRPRPRMHPRP,0.173
20,RRIRSRPPRLPRPRPRPISMPRP,-0.145
21,RRIRYRPPRLPRPRPRPKVNPRP,-0.599
22,RRIRIRPPRLPRPRPRPGYCPRP,-0.371
23,RRIRARPPRLPRPRPRPRFHPRP,-0.0673
24,RRIRERPPRLPRPRPRPIIVPRP,-0.149
25,RRIRFRPPRLPRPRPRPVQMPRP,0.189

row,Sequence,shrunken log2 fold change
1,RRIRNRPPRLPRPRPRPLIAPRP,-0.305
2,RRIRCRPPRLPRPRPRPCPQPRP,-0.184
3,RRIRARPPRLPRPRPRPFYKPRP,-0.009
4,RRIRRRPPRLPRPRPRPKGLPRP,0.238
5,RRIRGRPPRLPRPRPRPDYTPRP,0.343
6,RRIRQRPPRLPRPRPRPVVLPRP,-0.227
7,RRIRIRPPRLPRPRPRPHGAPRP,-0.0865
8,RRIRSRPPRLPRPRPRPCHRPRP,-0.0558
9,RRIRRRPPRLPRPRPRPPKQPRP,0.459
10,RRIRTRPPRLPRPRPRPWIWPRP,-0.0307
11,RRIRTRPPRLPRPRPRPDNNPRP,-0.48
12,RRIRRRPPRLPRPRPRPTEVPRP,0.238
13,RRIRYRPPRLPRPRPRPPEYPRP,0.0412
14,RRIRQRPPRLPRPRPRPCVWPRP,0.213
15,RRIRPRPPRLPRPRPRPDIIPRP,0.00942
16,RRIRYRPPRLPRPRPRPTCAPRP,-0.0853
17,RRIRHRPPRLPRPRPRPTMGPRP,0.144
18,RRIRFRPPRLPRPRPRPYDMPRP,-0.209
19,RRIRSRPPRLPRPRPRPQDDPRP,-0.351
20,RRIRCRPPRLPRPRPRPLPKPRP,0.258
21,RRIRERPPRLPRPRPRPLPKPRP,0.222
22,RRIRPRPPRLPRPRPRPQYNPRP,-0.742
23,RRIRIRPPRLPRPRPRPTWEPRP,-0.212
24,RRIRWRPPRLPRPRPRPSKMPRP,-0.0978
25,RRIRRRPPRLPRPRPRPLNWPRP,0.296

row,Sequence,shrunken log2 fold change
1,RRIRDRPPRLPRPRPRPDNDPRP,0.212
2,RRIRNRPPRLPRPRPRPDIIPRP,-0.0869
3,RRIRIRPPRLPRPRPRPNEWPRP,-0.00088
4,RRIRHRPPRLPRPRPRPFDTPRP,-0.178
5,RRIRDRPPRLPRPRPRPFVNPRP,-0.254
6,RRIRDRPPRLPRPRPRPVDKPRP,-0.01
7,RRIRMRPPRLPRPRPRPPLDPRP,1.03
8,RRIRHRPPRLPRPRPRPFKSPRP,0.00748
9,RRIRLRPPRLPRPRPRPECSPRP,0.177
10,RRIRSRPPRLPRPRPRPEQTPRP,0.709
11,RRIRSRPPRLPRPRPRPMKMPRP,-0.0963
12,RRIRFRPPRLPRPRPRPAMPPRP,0.0356
13,RRIRWRPPRLPRPRPRPEIMPRP,1.1
14,RRIRHRPPRLPRPRPRPIQVPRP,0.000744
15,RRIRHRPPRLPRPRPRPMKGPRP,0.081
16,RRIRARPPRLPRPRPRPQIHPRP,-0.0277
17,RRIRSRPPRLPRPRPRPAVQPRP,-0.0326
18,RRIRCRPPRLPRPRPRPHKQPRP,-0.0354
19,RRIRWRPPRLPRPRPRPTPHPRP,0.427
20,RRIRLRPPRLPRPRPRPRMGPRP,0.135
21,RRIRYRPPRLPRPRPRPHNIPRP,-0.238
22,RRIRERPPRLPRPRPRPHNFPRP,0.0533
23,RRIRWRPPRLPRPRPRPTWCPRP,0.242
24,RRIRIRPPRLPRPRPRPISDPRP,-0.0354
25,RRIRCRPPRLPRPRPRPWAMPRP,-0.226

row,Sequence,shrunken log2 fold change
1,RRIRFRPPRLPRPRPRPVVDPRP,-0.232
2,RRIRGRPPRLPRPRPRPAYCPRP,0.114
3,RRIRYRPPRLPRPRPRPDHNPRP,-0.217
4,RRIRERPPRLPRPRPRPNQMPRP,-0.0733
5,RRIRVRPPRLPRPRPRPIGVPRP,-0.01
6,RRIRSRPPRLPRPRPRPVVVPRP,0.1
7,RRIRCRPPRLPRPRPRPEHTPRP,-0.0466
8,RRIRYRPPRLPRPRPRPFRQPRP,0.0775
9,RRIRGRPPRLPRPRPRPPALPRP,0.881
10,RRIRPRPPRLPRPRPRPPHNPRP,0.242
11,RRIRWRPPRLPRPRPRPHRLPRP,-0.0123
12,RRIRHRPPRLPRPRPRPHHYPRP,-0.533
13,RRIRGRPPRLPRPRPRPNDAPRP,0.0548
14,RRIRFRPPRLPRPRPRPRQRPRP,0.346
15,RRIRTRPPRLPRPRPRPWVTPRP,-0.117
16,RRIRRRPPRLPRPRPRPKGHPRP,0.127
17,RRIRMRPPRLPRPRPRPCVYPRP,-0.195
18,RRIRWRPPRLPRPRPRPQEIPRP,-0.0137
19,RRIRQRPPRLPRPRPRPYYPPRP,0.0338
20,RRIRVRPPRLPRPRPRPHEAPRP,0.145
21,RRIRQRPPRLPRPRPRPVVIPRP,-0.292
22,RRIRARPPRLPRPRPRPEADPRP,1.53
23,RRIRMRPPRLPRPRPRPMLLPRP,0.0485
24,RRIRTRPPRLPRPRPRPDELPRP,-0.0838
25,RRIRTRPPRLPRPRPRPQACPRP,-0.0237

row,Sequence,shrunken log2 fold change
1,RRIRDRPPRLPRPRPRPVWSPRP,0.065
2,RRIRFRPPRLPRPRPRPATMPRP,-0.0804
3,RRIRIRPPRLPRPRPRPFHYPRP,0.0334
4,RRIRDRPPRLPRPRPRPSPAPRP,0.0515
5,RRIRKRPPRLPRPRPRPMGWPRP,0.31
6,RRIRLRPPRLPRPRPRPYEAPRP,-1.12
7,RRIRIRPPRLPRPRPRPEWNPRP,-0.332
8,RRIRRRPPRLPRPRPRPPISPRP,0.0255
9,RRIRRRPPRLPRPRPRPMCAPRP,0.193
10,RRIRERPPRLPRPRPRPKPKPRP,0.0931
11,RRIRKRPPRLPRPRPRPFADPRP,0.00902
12,RRIRWRPPRLPRPRPRPHVAPRP,0.181
13,RRIRDRPPRLPRPRPRPATPPRP,0.276
14,RRIRTRPPRLPRPRPRPCGWPRP,0.0147
15,RRIRNRPPRLPRPRPRPVWTPRP,-0.118
16,RRIRMRPPRLPRPRPRPMGLPRP,0.0299
17,RRIRARPPRLPRPRPRPKLLPRP,0.00678
18,RRIRDRPPRLPRPRPRPLGKPRP,0.188
19,RRIRERPPRLPRPRPRPFGKPRP,-0.01
20,RRIRWRPPRLPRPRPRPNVQPRP,-0.0399
21,RRIRERPPRLPRPRPRPITHPRP,-0.527
22,RRIRCRPPRLPRPRPRPKFYPRP,-0.309
23,RRIRMRPPRLPRPRPRPTNTPRP,0.176
24,RRIRVRPPRLPRPRPRPDKDPRP,-0.337
25,RRIRKRPPRLPRPRPRPNESPRP,-0.0703
